The record followed here is US12514920B1, “Respiratory syncytial virus mRNA vaccine, and preparation method therefor and use thereof” (Hangzhou Tianlong Pharmaceutical Co., Ltd., priority 2024, dated 2026).

Positions count from the first letter of the chain named.

For one assay, the system named is RSV F antibody (11A9). The assay can be described thus: Binding of epitope II of RSV F antigen mutants by flow cytometry. Particulars: epitope II, antibody 11A9. The method in brief:
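293T cells were transfected with mRNA-LNP (300 ng mRNA) encoding the RSV F mutants and harvested after 16 h. Cells were stained with fluorescent 3C12 (pre-F-specific epitope Φ) or 11A9 (epitope II, pre-F and post-F) for 2 h at 4 °C in the dark, then washed and read by flow cytometry on 1×10^4 cells per measurement.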
Background: In flow cytometry, cells or beads pass a laser one at a time.

In assay [1] the target is RSV pre-F antibody (3C12). Briefly: Affinity of RSV F antigen mutants by BLI, epitope Φ. The assay is classed as binding. On the procedure: To investigate the affinity of the RSV F antigen mutants for antibodies specifically recognizing epitopes in a pre-fusion conformation, the affinity was determined by a bio-layer interferometry (BLI) method in this example.
• 293T cells (purchased from ATCC cell bank); • RSV pre-F antibody (3C12), epitope Φ (Novoprotein, Cat. No.: DA101); • RSV pre-F antibody (7H11), epitope Quaternary (Novoprotein, Cat. No.: DA109); • Experimental group: mRNA vaccines after screening in Example 6;
Protein sample preparation: the experimental procedure was the same as in Example 3.
The antibodies were each diluted to 10 µg/mL with a 1×PBST solution. […]
The detection was performed using a protein interaction analyzer, and the results were analyzed using Data Analysis 12.0 software to obtain the binding rate, dissociation rate, and affinity constants.
Bio-Layer interferometry (referred to as BLI) is a label-free real-time monitoring optical detection technique, mainly used for comprehensive quantitative analysis of the interaction between biomolecules and protein concentration determination. […]
In the present application, the affinity of target proteins for 2 antibodies was analyzed by a BLI method, wherein the RSV pre-F antibody (3C12) recognizes the epitope […], and the RSV pre-F antibody (7H11) recognizes the epitope Quaternary.

Assay [2] addresses RSV pre-F antibody (7H11). The assay can be described thus: Affinity of RSV F antigen mutants by BLI, epitope Quaternary. It is filed as binding.
From the text: The antibodies were each diluted to 10 g/mL with a 1×PBST solution.

B1: YK-RSV-009 (protein)
chain: QNITEEFYCSTCSAVSKGYLGALRTGWYTSVILIELSNIKENKCNGTDAKVKLIKQELDKYKNAVTDLQLLMQSTPATGSGSAIASGVAVSKVLHLEGEVNKIKSALLSTNKAVVSLSNGVSVLTFKVLDLKNYIDKQLLPIVNKQSCSIPNIETVIEFQQKNNRLLEITREFSVNAGVTTPVSTYMLTNSELLSLINDMPITNDQKKLMSNNVQIVRQQSYSIMSIIKEEVLAYVVQLPLYGVIDTPCWKLHTSPLCTTNTKEGSNICLTRTDRGWYCDNAGSVSFFPQAETCKVQSNRVFCDTMNSRTLPSEVNLCNVDIFNPKYDCKIMTSKTDVSSSVITSLGAIVSCYGKTKCTASNKNRGIIKTFSNGCDYVSNKGVDTVSVGNTLYYVNKQEGQSLYVKCEPIINFYDPLVFPSSEFDASISQVNEKINQSLAFIRKSDELLHNVNAGKSTTNIMITTIIIVIIVILLSLIAVGLLLY
Turning to B1, in the assay on RSV F antibody (11A9), the “RSV F antibody (11A9) Epitope II (%) binding rate” value (“RSV F antibody … (%) binding rate” for short) is reported as 93.1%.

B2: YK-RSV-048 (protein)
chain: QNITEEFYQSTCSAVSKGYLGALRTGWYTSVITIELSNIKENKCNGTDAKVKLIKQELDKYKNAVTDLQLLMQSTPATGSGSFLGFLCGVGSAIASGVAVSKVLHLEGEVNKIKSALLSTNKAVVSLSNGVSVLTFKVLDLKNYIDKQLLPILNKQSCSIPNIETVIEFQQKNNRLLEITREFSVNAGVTTPVSTYMLTNSELLSLINDMPITNDQKKLMSNNVQIVRQQSYSIMSIIKEEVLAYVVQLPLYGVIDTPCWKLHTSPLCTTNTKEGSNICLTRTDRGWYCDNAGSVSFFPQAETCKVQSNRVFCDTMCSRTLPSEVNLCNVDIFNPKYDCKIMTSKTDVSSSVITSLGAIVSCYGKTKCTASNKNRGIIKTFSNGCDYVSNKGVDTVSVGNTLYYVNKQEGQSLYVKGEPIINFYDPLVFPSDEFDASISQVNEKINQSLAFIRKSDELLHNVNAGKSTTNIMITTIIIVIIVILLSLIAVGLLLY
In general, Kd refers to a measure of binding affinity in units of concentration. A low value points to a tighter complex. With B2, in the assay with RSV F antibody (11A9), the “RSV F antibody … (%) binding rate” value was 95.1%. Moreover, the Kd in assay [1] is 0.183 nM; in assay [2], 0.227 nM.

B3: YK-RSV-050 (protein)
chain: B2 chain with L87C, C88L
On to B3, for which the “RSV F antibody … (%) binding rate” value in the assay on RSV F antibody (11A9) was 93.0%. In addition, the Kd is 0.552 nM in assay [1] and 0.115 nM in assay [2].
